# Laboratory results taken from the supplement of paper PMC7877785.
# ± gives the uncertainty stated by the source.
# Test: self-splicing fitness, log relative to wild type (ln ratio); higher = more splicing; Tetrahymena group I intron in knt gene, E. coli kanamycin selection, DiMSum; sequences stand for … in CUCUCU…GGAGGGAAAAGUUAUCAGGCAUGCACCUGGUAGCUAGUCUUUAAACCAAUAGAUUGCAUCGGUUUAAAAGGCAAGACCGUCAAAUUGCGGGAAAGGGGUCAACAGCCGUUCAGUACCAAGUCUCAGGGGAAACUUUGAGAUGGCCUUGCAAAGGGUAUGGUAAUAAGCUGACGGACAUGGUCCUAACCACGCAGCCAAGUCCUAAGUCAACAGAUCUUCUGUUGAUAUGGAUGCAGUUCACAGACUAAAUGUCGGUCGGGGAAGAUGUAUUCUUCUCAUAAGAUAUAGUCGGACCUCUCCUUAAUGGGAGCUAGCGGAUGAAGUGAUGCAACACUGGAGCCGCUGGGAACUAAUUUGUAUGCGAAAGUAUAUUGAUUAGUUUUGGAGUACUCGUGGUCG
# Summary of the method: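 The eight P1ex-region nucleotides of an intron in the knt kanamycin-resistance gene on pET-22b(+) were all randomised and the library put into E. coli BL21(DE3). Six replicate transformations were grown overnight at 37°C or 30°C on LB agar with or without 25 μg/mL kanamycin, together with 100 μg/mL carbenicillin, 50 μM IPTG and 0.2% rhamnose. Colonies were pooled and amplicon-sequenced on an Illumina HiSeq 2500. Fitness from DiMSum is the error-weighted combination of wild-type-normalised replicate fold changes, kanamycin over none.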
Sequence,self-splicing fitness (ln) (30 °C),self-splicing fitness (ln) (37 °C)
AUAAAGCAAUAUUACGGAAA,-1.11 ± 0.11,-1.12 ± 0.18
CUUAAGCAAUAUUACGUCUU,-3.64 ± 0.24,-3.11 ± 0.25
UUCUAGCAAUAUUACGGGGC,-3.22 ± 0.32,-2.02 ± 0.26
GUGUAGCAAUAUUACGGCGU,-1.42 ± 0.11,-1.04 ± 0.12
UUAAAGCAAUAUUACGUGGG,-1.65 ± 0.1,-2.03 ± 0.17
AGACAGCAAUAUUACGUCUG,-1.6 ± 0.076,-0.662 ± 0.08
CUUUAGCAAUAUUACGCGUA,-3.14 ± 0.26,-3.28 ± 0.35
UGUGAGCAAUAUUACGUGAC,-4.58 ± 0.32,-3.08 ± 0.25
UCAUAGCAAUAUUACGGACG,-1.17 ± 0.15,-1.11 ± 0.17
AACGAGCAAUAUUACGACGG,-4.27 ± 0.37,-2.04 ± 0.23
AGACAGCAAUAUUACGUCAU,-2.86 ± 0.13,-2.17 ± 0.15
CCACAGCAAUAUUACGGUUG,-1.72 ± 0.047,-0.701 ± 0.058
GCUAAGCAAUAUUACGAGUA,-1.73 ± 0.18,-1.31 ± 0.12
AUGAAGCAAUAUUACGCUAU,-1.47 ± 0.091,-1.21 ± 0.12
UACAAGCAAUAUUACGGGGG,-2.66 ± 0.14,-2.02 ± 0.13
UCGAAGCAAUAUUACGGCAA,-1.81 ± 0.19,-1.72 ± 0.17
AUUGAGCAAUAUUACGUGUA,-3.52 ± 0.21,-2.69 ± 0.24
CCGGAGCAAUAUUACGCAAU,-2.59 ± 0.36,
CGUUAGCAAUAUUACGUAAC,,-2.3 ± 0.46
UAUUAGCAAUAUUACGUUGG,-2.1 ± 0.21,-0.685 ± 0.18
UGAUAGCAAUAUUACGGACA,-0.237 ± 0.1,0.61 ± 0.14

Sequence,self-splicing fitness (ln) (30 °C),self-splicing fitness (ln) (37 °C)
AAGAAGCAAUAUUACGGCAG,-1.35 ± 0.099,-0.774 ± 0.12
CCUGAGCAAUAUUACGAAGA,-1.76 ± 0.18,-1.69 ± 0.19
CUGAAGCAAUAUUACGACGU,-2.75 ± 0.12,-1.09 ± 0.1
GUCAAGCAAUAUUACGUGAC,-5.1 ± 0.39,-4.13 ± 0.32
CACUAGCAAUAUUACGUUCA,-2.34 ± 0.17,-2.49 ± 0.2
CCACAGCAAUAUUACGCCAG,-2.56 ± 0.15,-1.07 ± 0.14
AAGCAGCAAUAUUACGAGUA,-2.87 ± 0.19,-2.08 ± 0.14
GCGGAGCAAUAUUACGUCGA,-2.59 ± 0.32,-1.83 ± 0.24
GGUUAGCAAUAUUACGCGAG,-1.9 ± 0.2,-0.416 ± 0.13
CUCUAGCAAUAUUACGAGAA,-3.05 ± 0.41,-2.02 ± 0.21
CAUCAGCAAUAUUACGGCCU,-3.29 ± 0.16,-2.15 ± 0.16
UUGCAGCAAUAUUACGUCAC,,-1.35 ± 0.29
CUUAAGCAAUAUUACGUCUC,-3.75 ± 0.33,-2.11 ± 0.27
GGACAGCAAUAUUACGAGUA,-2.92 ± 0.15,-1.79 ± 0.13
CCACAGCAAUAUUACGCGUC,-3.13 ± 0.16,-3.14 ± 0.27
UUUGAGCAAUAUUACGCGAG,-1.42 ± 0.15,-0.997 ± 0.2
AGUCAGCAAUAUUACGUACG,-0.473 ± 0.08,-0.0481 ± 0.1
CACAAGCAAUAUUACGCUGA,-2.12 ± 0.12,-1.72 ± 0.12
GAGAAGCAAUAUUACGAUAU,-2.18 ± 0.16,-0.855 ± 0.15
AAACAGCAAUAUUACGGUGC,-2.97 ± 0.11,-3.4 ± 0.17
CGCAAGCAAUAUUACGGUCG,-2.32 ± 0.11,-0.33 ± 0.1

Sequence,self-splicing fitness (ln) (30 °C),self-splicing fitness (ln) (37 °C)
AGUCAGCAAUAUUACGGUGG,-3.01 ± 0.26,-1.79 ± 0.24
CCCUAGCAAUAUUACGAACA,,-2.55 ± 0.42
CCCCAGCAAUAUUACGGGCG,-3.69 ± 0.15,-1.94 ± 0.11
AUUCAGCAAUAUUACGUUCC,-1.54 ± 0.14,-1.5 ± 0.21
UGCCAGCAAUAUUACGUGAA,-1.73 ± 0.09,-0.422 ± 0.1
CAGUAGCAAUAUUACGCCAA,-2.85 ± 0.36,-2.91 ± 0.31
GCUGAGCAAUAUUACGUAAG,-1.55 ± 0.12,-0.739 ± 0.16
UACUAGCAAUAUUACGUGGG,-3.32 ± 0.19,-2.46 ± 0.18
AUGAAGCAAUAUUACGCAAU,-1.03 ± 0.11,-0.743 ± 0.12
GGCAAGCAAUAUUACGCGCC,,-1.77 ± 0.28
ACUAAGCAAUAUUACGCCGG,-1.03 ± 0.11,-0.877 ± 0.18
GCAAAGCAAUAUUACGUGUG,-1.99 ± 0.046,-0.419 ± 0.052
CUAAAGCAAUAUUACGAGGG,-2.22 ± 0.094,-2.22 ± 0.16
GGCUAGCAAUAUUACGAGGA,-1.17 ± 0.17,-1.47 ± 0.14
UGUCAGCAAUAUUACGGCUA,0.131 ± 0.094,0.327 ± 0.12
UUAAAGCAAUAUUACGUUCA,0.284 ± 0.087,0.233 ± 0.12
GUUUAGCAAUAUUACGAUAU,-1.18 ± 0.14,-0.528 ± 0.16
UGGUAGCAAUAUUACGGGGA,-2.58 ± 0.26,-2.18 ± 0.18
UUAAAGCAAUAUUACGCUGU,-1.31 ± 0.16,-1.68 ± 0.2
